Data on 4 molecules can be found in patent US5792629A, “Isolated DNA encoding novel protease inhibitory polypeptide” (Mochida Pharmaceutical Co., Ltd., priority 1990, dated 1998).

Entries after “also recorded” stand apart in the source; their conditions may differ.

The target of test [1] is T1, FXa (Homo sapiens, UniProt P00742). Nature of the test: Human FXa-inhibiting activity, substrate S-2222. Set-up: purchased American Diagnostica Inc. To be noted: for human FXa-inhibiting activity: purified sample, various concentrations, remaining activity vs buffer control (FIG. 18A-C). The class given is biochemical. As to the method:
The purified sample obtained in Example 1-(5) was dissolved in 100 μl of distilled water. Concentration of this solution was determined based on its bovine trypsin-inhibiting activity using the aforementioned UTI as a standard. The solution was then diluted to various concentration levels with 0.1% BSA/150 mM NaCl/5 mM CaCl2 /50 mM Tris-HCl buffer (pH 8.3) for use in the activity measurement. The UTI was also diluted in the same manner. Using a synthetic compound S-2222 (Daiichi Pure Chemicals Co., Ltd.) as a substrate, human FXa-inhibiting activities of the diluted test samples and the positive control were measured in accordance with the method of Ohno et al. (Ohno,H. et al., Thromb. Res., vol.19, pp.579-588, 1980) as follows.
Human FXa (American Diagnostica Inc.) was dissolved in distilled water to a concentration of 10 PEU/ml and the solution was further diluted with 0.1% BSA/150 mM NaCl/5 mM CaCl2 /50 mM Tris-HCl buffer (pH 8.3) to prepare 0.1 PEU/ml of FXa solution. 4 mM solution of S-2222 was prepared by dissolving it in distilled water and the solution was further diluted with 0.1% BSA/150 mM NaCl/5 MM CaCl2 /50 mM Tris-HCl buffer (pH 8.3) to obtain 2 mM solution of S-2222.
Next, 25 μl of the test sample or positive control was mixed with 100 μl of 0.1% BSA/150 mM NaCl/5 mM CaCl2 /50 mM Tris-HCl buffer (pH 8.3) and 25 μl of the FXa solution. After incubation at 37° C. for 10 minutes, 100 μl of the S-2222 solution was added to the mixture to start the reaction. The reaction was carried out at 37° C. for 30 minutes and then stopped by adding 50 μl of 50% acetic acid solution to the reaction mixture. Thereafter, absorbance at 405 nm was measured using a spectrophotometer.
In this instance, in order to eliminate absorbance of various solutions in the reaction mixture, a blank solution was prepared by mixing 25 μl of the FXa solution with 50 μl of 50% acetic acid and then with 25 μl of each test sample or the positive control, 100 μl of 0.1% BSA/150 mM NaCl/5 mM CaCl2 /50 mM Tris-HCl buffer (pH 8.3) and with 100 μl of the S-2222 solution.
In this figure, human FXa remaining activity was expressed by percentage based on the absorbance of a control reaction mixture in which 25 μl of 0.1% BSA/150 mM NaCl/5 mM CaCl2 /50 mM Tris-HCl buffer (pH 8.3) was used instead of the test sample or the positive control.

For another test, the system named is trypsin. To be noted: literature report; cited from earlier work.
Another test deals with chymotrypsin. To be noted: literature report; cited from earlier work.
For the next test, the system named is elastase. To be noted: literature report; cited from earlier work.
The target of the next test is plasmin (Homo sapiens, UniProt P00747). To be noted: literature report; cited from earlier work.
For test [2], the target named is T1, FXa. To be noted: literature reports, very high concentration; cited from earlier work.

T1 sequence (P00742 235-488 limits assumed): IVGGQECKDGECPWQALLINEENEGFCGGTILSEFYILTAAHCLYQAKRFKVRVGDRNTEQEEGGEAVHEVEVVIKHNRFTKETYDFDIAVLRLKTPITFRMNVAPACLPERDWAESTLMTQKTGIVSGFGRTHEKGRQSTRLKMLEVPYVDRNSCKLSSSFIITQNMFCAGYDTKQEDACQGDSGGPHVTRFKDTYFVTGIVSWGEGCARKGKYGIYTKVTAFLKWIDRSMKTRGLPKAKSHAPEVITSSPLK
T1 sequence (P00742 41-179 partner limits assumed): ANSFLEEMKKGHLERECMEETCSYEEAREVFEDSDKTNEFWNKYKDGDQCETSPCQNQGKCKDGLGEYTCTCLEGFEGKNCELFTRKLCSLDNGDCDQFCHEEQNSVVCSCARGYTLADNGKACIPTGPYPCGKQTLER
plasmin, sequence (P00747 581-810 limits assumed, species assumed): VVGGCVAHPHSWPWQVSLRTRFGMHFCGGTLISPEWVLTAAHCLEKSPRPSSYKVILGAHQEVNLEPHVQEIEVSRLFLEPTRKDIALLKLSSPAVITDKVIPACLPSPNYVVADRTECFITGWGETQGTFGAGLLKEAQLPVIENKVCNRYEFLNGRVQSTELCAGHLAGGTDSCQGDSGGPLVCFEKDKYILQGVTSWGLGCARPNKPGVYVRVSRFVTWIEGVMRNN
plasmin, sequence (P00747 97-580 partner limits assumed, species assumed): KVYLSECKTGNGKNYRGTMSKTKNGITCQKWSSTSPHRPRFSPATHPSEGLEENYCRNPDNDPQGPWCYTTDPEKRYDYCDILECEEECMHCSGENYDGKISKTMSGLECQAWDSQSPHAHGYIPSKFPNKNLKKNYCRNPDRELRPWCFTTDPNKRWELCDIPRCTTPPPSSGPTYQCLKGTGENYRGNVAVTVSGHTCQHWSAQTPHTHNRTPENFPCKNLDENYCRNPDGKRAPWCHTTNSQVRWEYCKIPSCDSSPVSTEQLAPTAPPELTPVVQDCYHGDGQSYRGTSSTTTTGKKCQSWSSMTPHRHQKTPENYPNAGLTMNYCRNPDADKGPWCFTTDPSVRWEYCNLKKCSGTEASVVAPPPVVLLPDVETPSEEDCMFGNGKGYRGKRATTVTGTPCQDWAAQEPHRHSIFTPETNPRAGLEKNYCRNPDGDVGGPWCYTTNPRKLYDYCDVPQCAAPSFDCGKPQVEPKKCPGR

In the case of “CC51: polypeptide defined by the amino acid sequence of formula 1, purified from culture supernatant of E. coli JE5505 (pM560) (CNLPIVRGPCRAFIQLWAFDAVKGKCVLFPYGGCQGNGNKFYSEKECREYC)”, in the test with FXa [1], the “human FXa-inhibiting activity” value is recorded as “activity was found”.

B1: UTI: urinary trypsin inhibitor purified from human urine (Mochida Pharmaceutical), used as positive control (protein)
chain: AVLPQEEEGSGGGQLVTEVTKKEDSCQLGYSAGPCMGMTSRYFYNGTSMACETFQYGGCMGNGNNFVTEKECLQTCRTVAACNLPIVRGPCRAFIQLWAFDAVKGKCVLFPYGGCQGNGNKFYSEKECREYCGVPGDGDEELLRFSN
modifications: glycoprotein (sugar moieties, as the filing says in general of UTI)
B1: the inhibition of trypsin result in the test with trypsin is reported as “shows the inhibition activities”. The inhibition of chymotrypsin entry in the test with chymotrypsin is “shows the inhibition activities”. Further, the inhibition of elastase entry in the test on elastase was “shows the inhibition activities”. Also, in the test with plasmin, the inhibition of plasmin entry is given as “shows the inhibition activities”. In addition, the “inhibition of FXa activity” value in the test with FXa [2] was “slightly inhibited; also recorded: inhibited the FXa activity”. Further, the FXa-inhibiting activity result in the test with FXa [1] (experiments of the inventors, even at an extremely high concentration) is “no FXa-inhibiting activity was found”. Besides, in the test with FXa [1], the “human FXa-inhibiting activity” value was “activity was not found”.

B2: TL66: polypeptide defined by formula 8; known enzyme-digested fragment of urinary trypsin inhibitor, made in E. coli JE5505 (pM551) (protein)
chain: TVAACNLPIVRGPCRAFIQLWAFDAVKGKCVLFPYGGCQGNGNKFYSEKECREYCGVPGDGDEELL
With B2, the inhibition of trypsin entry with trypsin is reported as “activities to inhibit”. In addition, in the test on chymotrypsin, the inhibition of chymotrypsin entry is reported as “activities to inhibit”. In the test with plasmin, the inhibition of plasmin result is given as “activities to inhibit”. Also, in the test with FXa [1], the “human FXa-inhibiting activity” value is reported as “activity was found”.

B3: TN70: polypeptide defined by the amino acid sequence of formula 3, purified from culture supernatant of E. coli JE5505 (pM552) (protein)
chain: TVAACNLPIVRGPCRAFIQLWAFDAVKGKCVLFPYGGCQGNGNKFYSEKECREYCGVPGDGDEELLRFSN
As for B3, the “human FXa-inhibiting activity” value in the test with FXa [1] is on record as “activity was found”.
